In series [1] the test system is MiaPaca-2 human pancreatic tumor. Kind of series: In vivo anti-tumor study, MiaPaca-2 xenograft in nude mice. To be noted: MiaPaca-2 tumor-bearing nude mice, i.v.; conjugate 4 10 mg/kg qd (5 + 5); CPT-11 40 mg/kg twice/week for 2 weeks.
Excerpt: The number of viable cells was counted with a hemocytometer with trypan blue staining under a light microscope on the day of tumor cell inoculation. Cells were suspended with phenol red free RPMI-1640 and Matrigel in a 1:1 ratio. MiaPaca-2 suspension cells (1 × 10^6 cells) were implanted subcutaneously into the left flank of the nude mice using a 1-ml syringe (needle 24G × 1 in., 0.55 × 25 mm; TERUMO). A digital caliper was used to measure tumor sizes and dimensions as the tumor volume in mm^3 was calculated with the formula: Volume = (length × width^2)/2. Tumor-bearing mice were randomized (n = 8 per group) and mean tumor volume was approximately 170 mm^3. […] Body weight and tumor size were measured twice weekly.
Series [2] relates to MiaPaca-2 pancreatic cancer cells. To be noted: MiaPaca-2, MTS, 72 h.
Description: MiaPaCa-2 cells, obtained from the Bioresource Collection and Research Center, Hsinchu, Taiwan, and the Detroit 551 cells were cultured in Dulbecco’s modified Eagle’s medium (DMEM). All cells were grown in a humidified CO2 incubator at 37°C. Cell viability was determined by the MTS assay. In brief, cells were cultured (2,500–3,000 cells/well) in flat bottomed 96-well plates for 24 h. Serial-diluted conjugates were added to the cell media and incubated for 72 h. Culture medium was removed after 72 h followed by the addition of 100 μl of MTS and PMS mixture solution. In a humidified incubator at 37°C with 5% CO2, cells were then incubated for another 1.5 h for viable cells to convert the tetrazolium salt into formazan. The conversion to formazan was monitored at the 490-nm absorbance by a BioTek PowerWave-X Absorbance Microplate Reader. In this MTS assay, the recorded data were normalized to DMSO-treated and background controls. Using GraphPad Prism version 4 software, the IC50 value was the amount of each conjugate that caused a 50% reduction in cell viability in comparison to DMSO-treated controls.
Series [3] can be described thus: In vivo pharmacokinetic study, i.v., ICR mice. Further details: species or system mouse. As to conditions: male ICR mice, i.v. 5 mg/kg; for AUCSN-38: SN-38 released from the dosed conjugate; for AUCSN-38 / AUC: 0–24 h; for AUC / clearance / Vd: mouse, in vivo, iv; for AUC: intact conjugate, read-out: AUCconjugate; for clearance / Vd: n = 3; for Vd: read-out: Vss. As for the experimental part:
Six-week-old ICR mice, purchased from Biolasco (Taiwan), were divided into groups of three and 100 µl of dosing solution was given intravenously. Through cardiac puncture, blood sample was collected from each sacrificed animal at time points at 0.003, 0.083, 0.25, 0.5, 1, 2, 4, 6, 8, and 24 h and stored on ice (0–4°C). Plasma was separated from the blood by centrifugation at 3,000 rpm for 15 min at 4°C in a Beckman Model Allegra 6R centrifuge. Analysis of the plasma samples were done by using liquid chromatography with tandem mass spectrometry (LC/MS/MS). A gradient system was used for the separation of analyte and IS. Ammonium acetate aqueous solution (10 mM) containing 0.1% formic acid was used as mobile phase A, while mobile phase B was acetonitrile. The gradient profile was as follows: 0.0–1.1 min, 50%B; 1.2–3.7 min, 55%B–90%B; 3.8–5.0 min, 90%B–50%B at the flow rate of 1.5 ml/min. The autosampler was programmed to inject 15 µl of sample every 5 min.
Next, to address the in vivo longevities and stabilities of U-4CR and/or “clicked” conjugates, in vivo systemic pharmacokinetic studies of conjugates 4–8 were carried out in the ICR mice. One single intravenous dose of 5 mg/kg of each conjugate was given to the mice. Plasma concentrations between the intact conjugate and the active payload (released SN-38 from the conjugate) in the circulation were measured and the pharmacokinetic parameters including clearance (CL), steady-state volume of distribution (Vss), and area under the plasma concentration curve (AUC0–24h) were determined (Table 2). Since SN-38 was the cytotoxic payload, the AUC ratio between the intact conjugate and SN-38 reflected the plasma stability, as these conjugates should be capable of uncaging the payload with higher protease activities in the tumor microenvironment. We envisioned that U-4CR could be a valuable synthetic strategy that unifies several advantageous features for bioactive SMDC in vivo. In addition to installing hydrophilic moiety to increase solubility and functional groups that modulate steady-state volume of distribution of the conjugate in vivo, a facile reactive handle for payload conjugation was also included. Indeed, we observed structure–property trends among the U-4CR-derived conjugates 5–8. Since these conjugates harnessed the same exo-BCN clicked SN-38 portion, the U-4CR products between the Zn-DPA targeting ligand and other components might contribute factors that could affect their in vivo stabilities (Table 2).

Series [4] relates to ICR mice. In words: In vivo maximum tolerated dose determination (acute toxicity). Further details: species or system mouse. As to conditions: 5-day repeat dose, 1-week recovery monitoring. As for the experimental part: The acute toxicity studies were determined in ICR male mice. In general, the studies were conducted using the dose of 10-50 mpk for dosing 5 consecutive days and the survival of the animals and their body weight were monitored for 14 days after first dosing.
However, acute toxicity is another important parameter to be monitored in the development of SMDC. […] Not limited by the components described within, the optimization of in vivo pharmacokinetic profiles of alternative ZnDPA-based SMDC, we anticipate that U-4CR with combinations of different components can lead to the construction of improved properties, such as decrease in the clearance rate and steady-state volume of distribution (Vss). Moreover, we envision employment of an imaging agent as one of the components can also furnish functional theranostic if desired.

Data on five molecules can be found in publication PMC8886374, “Click Chemistry and Multicomponent Reaction for Linker Diversification of Zinc Dipicolylamine-Based Drug Conjugates” (Frontiers in Chemistry, 2022).

As for `CCc1c2c(nc3ccc(OC(=O)N4CCC(N5CCCCC5)CC4)cc13)-c1cc3c(c(=O)n1C2)COC(=O)[C@]3(O)CC` [CPT-11, irinotecan], the tumor shrinkage entry in series [1] was “not observed”. In series [2], the “decrease in potency towards MiaPaca-2 (IC50 ratio) compared to SN-38” value is reported as ~350 fold.
Consider `CCc1c2c(nc3ccc(OC(=O)c4ccc(CN(CCOCCOCCn5nnc6c5CC[C@H]5[C@@H](CC6)[C@@H]5COC(=O)N(C)CCCC(=O)N(CCCCOc5cc(CN(Cc6ccccn6)Cc6ccccn6)cc(CN(Cc6ccccn6)Cc6ccccn6)c5)C5(C(=O)NC(C)(C)C)CCOCC5)C(=O)C5(c6ccc(Cl)cc6)CCCCC5)cc4)cc13)-c1cc3c(c(=O)n1C2)COC(=O)[C@]3(O)CC` [conjugate 5], for which, in series [3], the AUCSN-38 came out at 696 ng·h/mL, the AUC was 1590 ng·h/mL, the clearance was 50.2 mL/min/kg and the Vd stood at 18.5 L/kg.
Taken in the same sequence, the figures for `CCc1c2c(nc3ccc(OC(=O)c4ccc(CN(CCOCCOCCn5nnc6c5CC[C@H]5[C@@H](CC6)[C@@H]5COC(=O)N5CCC(C(=O)N(CCCCOc6cc(CN(Cc7ccccn7)Cc7ccccn7)cc(CN(Cc7ccccn7)Cc7ccccn7)c6)C6(C(=O)NC(C)(C)C)CCOCC6)CC5)C(=O)C5(c6ccc(Cl)cc6)CCCCC5)cc4)cc13)-c1cc3c(c(=O)n1C2)COC(=O)[C@]3(O)CC` [conjugate 6] were 927 ng·h/mL, 6460 ng·h/mL, 13.5 mL/min/kg and 4.1 L/kg.
Regarding `C/C=C/C(=O)N(CCCCOc1cc(CN(Cc2ccccn2)Cc2ccccn2)cc(CN(Cc2ccccn2)Cc2ccccn2)c1)C1(C(=O)NC(C)(C)C)CCN(C(=O)OC[C@H]2[C@@H]3CCc4nnn(CCOCCOCCN(Cc5ccc(C(=O)Oc6ccc7nc8c(c(CC)c7c6)Cn6c-8cc7c(c6=O)COC(=O)[C@]7(O)CC)cc5)C(=O)C5(c6ccc(Cl)cc6)CCCCC5)c4CC[C@@H]32)CC1` [conjugate 7], in series [3], the AUCSN-38 is 1,309 ng/ml*h, the AUC was 20700 ng·h/mL, the clearance amounted to 8.3 mL/min/kg and the Vd came out at 3.6 L/kg.
Consider `CCOP(=O)(CNC(=O)C1(N(CCCCOc2cc(CN(Cc3ccccn3)Cc3ccccn3)cc(CN(Cc3ccccn3)Cc3ccccn3)c2)C(=O)c2ccc(-c3ccc(O)cc3)cc2)CCN(C(=O)OC[C@H]2[C@@H]3CCc4nnn(CCOCCOCCN(Cc5ccc(C(=O)Oc6ccc7nc8c(c(CC)c7c6)Cn6c-8cc7c(c6=O)COC(=O)[C@]7(O)CC)cc5)C(=O)C5(c6ccc(Cl)cc6)CCCCC5)c4CC[C@@H]32)CC1)OCC` [conjugate 8], for which, in series [3], the AUCSN-38 is 1,549 ng/ml*h, the “difference in the AUC for the intact conjugate versus the released SN-38 within 24 h” value is on record as 40 fold, the AUC amounted to 62000 ng·h/mL and the clearance stood at 1.3 mL/min/kg. In series [3], the Vd worked out at 0.1 L/kg. Moreover, in series [4], the “maximum tolerated dose (MTD)” value is on record as 30 mpk.

In general, clearance refers to the volume of plasma or blood freed of the substance per unit of time. Read a low clearance as a low capacity for elimination.
